{
  "source": "patent US20220411516A1",
  "binders": {"B1": {"name": "AMG 596 (bispecific antibody, part only; not given: CD3-binding domain; linkers, part only)", "chain, part": "QVQLVESGGGVVQSGRSLRLSCAASGFTFRNYGMHWVRQAPGKCLEWVAVIWYDGSDKYYADSVRGRFTISRDNSKNTLYLQMNSLRAEDTAVYYCARDGYDILTGNPRDFDYWGQGTLVTVSSDTVMTQTPLSSHVTLGQPASISCRSSQSLVHSDGNTYLSWLQQRPGQPPRLLIYRISRRFSGVPDRFSGSGAGTDFTLEISRVEAEDVGVYYCMQSTHVPRTFGCGTKVEIK"}},
  "molecular_target": "EGFRvIII (Epidermal Growth Factor Receptor Variant III) (human) (UniProt P00533)",
  "test": "cell-based or functional assay",
  "data": [
    {"binder": "B1", "values": [
      {"measurement": "EC20 (in vitro cytotoxic activity)", "result": 0.07, "unit": "ng/mL"},
      {"measurement": "EC50 (in vitro cytotoxic activity)", "result": 0.41, "unit": "ng/mL"},
      {"measurement": "EC90 (concentration found to produce 90% cytotoxic activity)", "result": 1.8, "unit": "ng/mL"}
    ]}
  ]
}
